The results in this text go back to patent US20140378663A1.

The target of test [1] is FcγRIIaR131 (R&D system) (human) (UniProt P12318). The test is described as follows: ELISA, 293-F supernatant, vs parent 256N/378V/383N/434Y.
Test [2] deals with FcRn-p3 (fusion protein of β2 microglobulin chain and FcRn α-chain fused to bacteriophage protein p3 and CVDE protein) (UniProt P61769). The description is as above.
Test [3] addresses FcγRI (R&D system) (human) (UniProt P12314). Described as above.
Test [4] deals with FcγRIIb (R&D system) (human) (UniProt P31994). The test is described as above.
The target in test [5] is C1q complement (Calbiochem) (UniProt P02745). Described as above.
The target of test [6] is FcγRIIaR131 (R&D system) (human) (UniProt P12318). The test is described as follows: ELISA, purified IgG from YB2/0, vs parent R603-256N/378V/383N/434Y.
Test [7] deals with FcγRIIaH131 (PX Therapeutics, His-tagged) (human) (UniProt P12318). The description is as above.
In test [8] the target is FcRn-p3 (fusion protein of β2 microglobulin chain and FcRn α-chain fused to bacteriophage protein p3 and CVDE protein) (UniProt P61769). The test is described as above.
In test [9] the target is FcγRI (R&D system) (human) (UniProt P12314). The description is as above.
The target of test [10] is FcγRIIb (R&D system) (human) (UniProt P31994). The test is described as above.
Test [11] concerns the target T1, CD20 antigen on Raji lymphoblastoid B cells (UniProt P11836).
T1 sequence (looked up): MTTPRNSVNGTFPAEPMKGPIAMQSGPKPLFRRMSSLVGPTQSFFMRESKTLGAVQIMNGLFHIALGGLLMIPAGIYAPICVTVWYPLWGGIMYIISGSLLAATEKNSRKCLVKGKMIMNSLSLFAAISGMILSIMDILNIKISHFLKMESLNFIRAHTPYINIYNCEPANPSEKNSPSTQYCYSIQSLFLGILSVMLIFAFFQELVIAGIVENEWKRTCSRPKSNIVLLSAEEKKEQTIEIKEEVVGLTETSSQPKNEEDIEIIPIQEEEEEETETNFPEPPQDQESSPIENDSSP
The test is described as follows: flow cytometry on Raji cells.

Test [12] has as its target Recombinant soluble human FcRn (human) (UniProt P55899). The test is described as follows: SPR, FcRn immobilised, pH 6.0; reference R603.
The target in test [13] is FcγRIIaR131 (R&D system) (human) (UniProt P12318). The test is described as follows: ELISA, purified IgG from YB2/0, vs R603 IgG-WT.
Test [14] concerns the target FcγRIIaH131 (PX Therapeutics, His-tagged) (human) (UniProt P12318). The test is described as follows: ELISA, purified IgG from YB2/0, vs R603 IgG-WT.
The target of test [15] is FcRn-p3 (fusion protein of β2 microglobulin chain and FcRn α-chain fused to bacteriophage protein p3 and CVDE protein) (UniProt P61769). The test is described as follows: ELISA, purified IgG from YB2/0, vs R603 IgG-WT.
Test [16] has as its target FcγRIIIaV158 (R&D system) (human) (UniProt P08637). The test is described as follows: ELISA, purified IgG from YB2/0, vs R603 IgG-WT.
Test [17] has as its target FcγRI (R&D system) (human) (UniProt P12314). The test is described as follows: ELISA, purified IgG from YB2/0, vs R603 IgG-WT.
In test [18] the target is FcγRIIb (R&D system) (human) (UniProt P31994). The test is described as follows: ELISA, purified IgG from YB2/0, vs R603 IgG-WT.
The target of test [19] is FcγRIIIaF158 (PX Therapeutics, His-tagged) (human) (UniProt P08637). The test is described as follows: ELISA, purified IgG from YB2/0, vs R603 IgG-WT.
Test [20] has as its target FcγRIIaR131 (R&D system) (human) (UniProt P12318). The test is described as follows: ELISA, 293-F supernatant, vs R603 IgG-WT.
Test [21] deals with FcRn-p3 (fusion protein of β2 microglobulin chain and FcRn α-chain fused to bacteriophage protein p3 and CVDE protein) (UniProt P61769). The test is described as follows: ELISA, 293-F supernatant, vs R603 IgG-WT.
Test [22] concerns the target FcγRIIIaV158 (R&D system) (human) (UniProt P08637). The test is described as follows: ELISA, 293-F supernatant, vs R603 IgG-WT.
The target of test [23] is FcγRI (R&D system) (human) (UniProt P12314). The test is described as follows: ELISA, 293-F supernatant, vs R603 IgG-WT.
Test [24] deals with FcγRIIb (R&D system) (human) (UniProt P31994). The test is described as follows: ELISA, 293-F supernatant, vs R603 IgG-WT.
In test [25] the target is C1q complement (Calbiochem) (UniProt P02745). The test is described as follows: ELISA, 293-F supernatant, vs R603 IgG-WT.
Test [26] has as its target FcγRIIaR131 (R&D system) (human) (UniProt P12318). The test is described as follows: ELISA, 293-F supernatant, vs parent 259I/315D/434Y.
Test [27] has as its target FcRn-p3 (fusion protein of β2 microglobulin chain and FcRn α-chain fused to bacteriophage protein p3 and CVDE protein) (UniProt P61769). The test is described as follows: ELISA, 293-F supernatant, vs parent 259I/315D/434Y.
The target in test [28] is FcγRIIIaV158 (R&D system) (human) (UniProt P08637). The test is described as follows: ELISA, 293-F supernatant, vs parent 259I/315D/434Y.
For test [29], the target named is FcγRI (R&D system) (human) (UniProt P12314). The test is described as follows: ELISA, 293-F supernatant, vs parent 259I/315D/434Y.
Test [30] addresses FcγRIIb (R&D system) (human) (UniProt P31994). The test is described as follows: ELISA, 293-F supernatant, vs parent 259I/315D/434Y.
The target in test [31] is C1q complement (Calbiochem) (UniProt P02745). The test is described as follows: ELISA, 293-F supernatant, vs parent 259I/315D/434Y.
The target in test [32] is Recombinant soluble human FcRn (human) (UniProt P55899). The test is described as follows: SPR (BIAcore X100), FcRn immobilised, pH 6.0.
Test [33] addresses FcγRIIaR131 (R&D system) (human) (UniProt P12318). The test is described as follows: ELISA, purified IgG from YB2/0, vs parent R603-259I/315D/434Y.
The target in test [34] is FcγRIIaH131 (PX Therapeutics, His-tagged) (human) (UniProt P12318). The test is described as above.
In test [35] the target is FcRn-p3 (fusion protein of β2 microglobulin chain and FcRn α-chain fused to bacteriophage protein p3 and CVDE protein) (UniProt P61769). Described as above.
Test [36] deals with FcγRIIIaV158 (R&D system) (human) (UniProt P08637). The test is described as above.
Test [37] concerns the target FcγRI (R&D system) (human) (UniProt P12314). Described as above.
Test [38] concerns the target FcγRIIb (R&D system) (human) (UniProt P31994). The test is described as above.
The target of test [39] is FcγRIIIaF158 (PX Therapeutics, His-tagged) (human) (UniProt P08637). The description is as above.

C1q complement (Calbiochem), sequence (P02745 23-245, chain 1 of 3): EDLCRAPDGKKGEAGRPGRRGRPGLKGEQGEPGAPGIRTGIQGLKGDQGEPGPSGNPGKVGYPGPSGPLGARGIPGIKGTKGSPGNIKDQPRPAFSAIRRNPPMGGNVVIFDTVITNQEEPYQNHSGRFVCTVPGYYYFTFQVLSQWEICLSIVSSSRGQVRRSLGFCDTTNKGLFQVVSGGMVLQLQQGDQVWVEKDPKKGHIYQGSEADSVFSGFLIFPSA
C1q complement (Calbiochem), sequence (P02746 28-253, chain 2 of 3, further chain): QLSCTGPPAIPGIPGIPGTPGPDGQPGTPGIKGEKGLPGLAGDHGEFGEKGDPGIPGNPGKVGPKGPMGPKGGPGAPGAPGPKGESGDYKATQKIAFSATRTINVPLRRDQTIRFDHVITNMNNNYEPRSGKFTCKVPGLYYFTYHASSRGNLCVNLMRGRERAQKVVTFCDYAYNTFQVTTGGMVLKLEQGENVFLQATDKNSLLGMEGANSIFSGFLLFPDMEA
C1q complement (Calbiochem), sequence (P02747 29-245, chain 3 of 3, further chain): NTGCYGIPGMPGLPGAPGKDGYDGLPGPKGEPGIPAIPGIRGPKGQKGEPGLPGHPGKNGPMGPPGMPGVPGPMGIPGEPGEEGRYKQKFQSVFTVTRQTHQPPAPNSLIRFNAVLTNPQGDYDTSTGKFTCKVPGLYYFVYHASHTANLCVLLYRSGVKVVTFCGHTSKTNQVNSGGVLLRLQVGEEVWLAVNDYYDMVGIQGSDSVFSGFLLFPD
FcRn-p3 (fusion protein of β2 microglobulin chain and FcRn α-chain fused to bacteriophage protein p3 and CVDE protein), sequence (P61769 21-119, chain 1 of 2): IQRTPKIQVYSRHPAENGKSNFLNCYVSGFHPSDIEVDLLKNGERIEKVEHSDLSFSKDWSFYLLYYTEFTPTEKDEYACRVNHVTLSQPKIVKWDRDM
FcRn-p3 (fusion protein of β2 microglobulin chain and FcRn α-chain fused to bacteriophage protein p3 and CVDE protein), sequence (P55899 24-290, chain 2 of 2, further chain): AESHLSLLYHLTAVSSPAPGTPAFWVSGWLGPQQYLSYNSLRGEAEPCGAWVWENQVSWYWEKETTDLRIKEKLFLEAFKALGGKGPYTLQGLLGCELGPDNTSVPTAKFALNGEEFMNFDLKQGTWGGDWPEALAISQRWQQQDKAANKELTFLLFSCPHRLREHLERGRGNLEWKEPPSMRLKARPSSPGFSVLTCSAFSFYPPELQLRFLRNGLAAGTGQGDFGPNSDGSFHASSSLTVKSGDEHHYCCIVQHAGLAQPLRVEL
FcγRIIIaV158 (R&D system) (human), sequence (P08637 17-208 F176V limits assumed): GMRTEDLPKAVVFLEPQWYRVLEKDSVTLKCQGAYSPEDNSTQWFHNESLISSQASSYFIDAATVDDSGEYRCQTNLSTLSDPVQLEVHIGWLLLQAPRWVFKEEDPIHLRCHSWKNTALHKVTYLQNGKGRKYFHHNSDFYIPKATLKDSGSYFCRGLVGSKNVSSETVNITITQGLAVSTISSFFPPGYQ
FcγRIIb (R&D system) (human), sequence (P31994 46-217 limits assumed): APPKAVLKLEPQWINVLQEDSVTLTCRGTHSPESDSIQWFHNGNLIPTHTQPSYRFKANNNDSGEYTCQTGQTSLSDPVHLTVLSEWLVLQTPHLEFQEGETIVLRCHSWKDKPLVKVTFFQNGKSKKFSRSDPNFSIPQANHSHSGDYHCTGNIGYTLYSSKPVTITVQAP
FcγRIIaH131 (PX Therapeutics, His-tagged) (human), sequence (P12318 34-217 limits assumed): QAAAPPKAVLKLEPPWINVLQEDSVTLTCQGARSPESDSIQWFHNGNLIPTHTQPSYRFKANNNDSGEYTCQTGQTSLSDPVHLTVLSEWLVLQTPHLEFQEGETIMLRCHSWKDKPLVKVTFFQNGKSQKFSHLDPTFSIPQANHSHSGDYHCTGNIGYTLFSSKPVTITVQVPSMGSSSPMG
FcγRI (R&D system) (human), sequence (P12314 16-288 limits assumed): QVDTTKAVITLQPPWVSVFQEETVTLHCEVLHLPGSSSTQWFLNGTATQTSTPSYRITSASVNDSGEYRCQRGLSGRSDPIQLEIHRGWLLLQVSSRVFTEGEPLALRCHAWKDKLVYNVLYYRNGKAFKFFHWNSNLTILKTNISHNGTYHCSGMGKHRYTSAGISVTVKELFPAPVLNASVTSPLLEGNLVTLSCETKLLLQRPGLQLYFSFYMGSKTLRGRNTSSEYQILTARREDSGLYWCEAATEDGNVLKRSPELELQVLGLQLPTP
FcγRIIaR131 (R&D system) (human), sequence (P12318 36-218 H167R limits assumed): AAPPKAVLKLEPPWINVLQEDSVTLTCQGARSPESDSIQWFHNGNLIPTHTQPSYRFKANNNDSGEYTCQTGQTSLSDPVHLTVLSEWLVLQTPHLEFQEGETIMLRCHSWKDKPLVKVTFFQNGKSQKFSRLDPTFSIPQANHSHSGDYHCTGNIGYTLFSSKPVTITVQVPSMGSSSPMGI
FcγRIIIaF158 (PX Therapeutics, His-tagged) (human), sequence (P08637 17-208 limits assumed): as the sequence (P08637 17-208 F176V limits assumed) above, with V160F counted along it
Recombinant soluble human FcRn (human), sequence (P55899 24-290 limits assumed, chain 1 of 2): as the sequence (P55899 24-290, chain 2 of 2, further chain) above
Recombinant soluble human FcRn (human), sequence (P61769 21-119 limits assumed, chain 2 of 2, further chain): as the sequence (P61769 21-119, chain 1 of 2) above

With “R603 anti-CD20 IgG1 variant 256N/294Del/378V/383N/434Y (antibody)”, the ratio to the IgG1 without 294Del in test [1] came out at 0.004; in test [2] it was 0.75; in test [3], 0.66; in [4], 0.002; in [5] it was 0.04; in [6], 0.06. The ratio to the IgG1 without 294Del amounted to 0.09 in test [7], 1.04 in [8], 0.07 in [9] and 0.25 in [10].
“R603 anti-CD20 IgG1 variant 259I/294Del/315D/434Y (antibody)”: the Ag binding MFI (Arbitrary Unit) in test [11] turned out to be 96. In test [12], the Ratio WT/IgG (KD) is 3.54. Besides, the Ratio/IgG-WT amounted to 0.07 in [13]; 0.08 in test [14]; 5.97 in test [15]; 0.05 in [16]; 0.1 in test [17]; 0.41 in [18]. Also, the Ratio/IgG-WT worked out at 0.08 in test [19]; 0.01 in test [20]; 2.87 in test [21]; 0.02 in test [22]; 0.34 in [23]; 0.01 in [24]. The Ratio/IgG-WT in test [25] came out at 0.13. Also, the ratio to the IgG1 without 294Del in test [26] came to 0.01; in [27] it was 0.66; in test [28] it was 0.02; in [29], 0.41; in test [30], 0.01; in test [31], 0.1. Also, the ratio to the IgG1 without 294Del was found to be 0.06 in test [33]; 0.08 in test [34]; 0.86 in test [35]; 0.05 in test [36]; 0.09 in [37]; 0.27 in [38]. Besides, in test [39], the ratio to the IgG1 without 294Del came to 0.07. Also, the dissociation constant (Kd) in test [32] stood at 28 nM.
